Data as given in patent publication US20240116985A1 (published 2024).
Values belong to the binder of their own block, whether it stands above or below them. Starred links: 1 amine or outer side, 2 acyl side, 3 side chain; linkers in the order of their positions; H or OH if unused. Positions of bridges follow the written chain, without caps; N, C: chain ends. Non-standard residues stand in square brackets, D forms with d. Primed or numbered codes have the meaning given here. PyrS2″ = (S)-3-amino-1-((pent-4-en-1-yloxy)carbonyl)pyrrolidine-3-carboxylic acid (stapling residue), C=CCCCOC(=O)N1CC[C@@](N[*:1])(C(=O)[*:2])C1; RdN(3) = (R)-4-(((allyloxy)carbonyl)(methyl)amino)-2-amino-2-methylbutanoic acid, stapling residue, C=CCOC(=O)N(C)CC[C@@](C)(N[*:1])C(=O)[*:2]; RdN″ = (R)-4-(((allyloxy)carbonyl)(methyl)amino)-2-amino-2-methylbutanoic acid (stapling residue), C=CCOC(=O)N(C)CC[C@@](C)(N[*:1])C(=O)[*:2]; B5(16) = 2-amino-2-(pent-4-en-1-yl)hept-6-enoic acid = 2,2-bis(4-pentenyl)glycine (stitching residue), C=CCCCC(CCCC=C)(N[*:1])C(=O)[*:2]; B5(5) = 2,2-bis(4-pentenyl)glycine, 2-amino-2-(pent-4-en-1-yl)hept-6-enoic acid (stitching residue), C=CCCCC(CCCC=C)(N[*:1])C(=O)[*:2]; PyrS2 = (S)-3-amino-1-((pent-4-en-1-yloxy)carbonyl)pyrrolidine-3-carboxylic acid, C=CCCCOC(=O)N1CC[C@@](N[*:1])(C(=O)[*:2])C1; RdN = (R)-4-(((allyloxy)carbonyl)(methyl)amino)-2-amino-2-methylbutanoic acid, C=CCOC(=O)N(C)CC[C@@](C)(N[*:1])C(=O)[*:2]; B5(19) = 2-amino-2-(pent-4-en-1-yl)hept-6-enoic acid (bis(4-pentenyl)glycine), C=CCCCC(CCCC=C)(N[*:1])C(=O)[*:2]; B5(3) = 2,2-bis(4-pentenyl)glycine (stitching residue), C=CCCCC(CCCC=C)(N[*:1])C(=O)[*:2]; Phe(4-COOH) = N[C@@H](Cc1ccc(C(=O)O)cc1)C(=O)O; Trp(7-F) = N[C@@H](Cc1c[nH]c2c(F)cccc12)C(=O)O; S7 = C[C@@](CCCCCC=[*:3])(N[*:1])C(=O)[*:2]; 2Nal = N[C@@H](Cc1ccc2ccccc2c1)C(=O)O; Bta = N[C@@H](Cc1csc2ccccc12)C(=O)O; αAllylPro = C=CC[C@@]1(C(=O)O)CCCN1; tBuAla = CC(C)(C)C[C@H](N)C(=O)O; 3Thi = N[C@@H](Cc1ccsc1)C(=O)O; Cit = NC(=O)NCCC[C@H](N)C(=O)O; S8 = C=CCCCCCC[C@](C)(N)C(=O)O; Aib = CC(C)(N)C(=O)O

Columns and labels:
B-cat-Halo = biological target: T1, B-cat-Halo (UniProt P35222 1-781); test: cell-based or functional assay
T1 sequence (looked up): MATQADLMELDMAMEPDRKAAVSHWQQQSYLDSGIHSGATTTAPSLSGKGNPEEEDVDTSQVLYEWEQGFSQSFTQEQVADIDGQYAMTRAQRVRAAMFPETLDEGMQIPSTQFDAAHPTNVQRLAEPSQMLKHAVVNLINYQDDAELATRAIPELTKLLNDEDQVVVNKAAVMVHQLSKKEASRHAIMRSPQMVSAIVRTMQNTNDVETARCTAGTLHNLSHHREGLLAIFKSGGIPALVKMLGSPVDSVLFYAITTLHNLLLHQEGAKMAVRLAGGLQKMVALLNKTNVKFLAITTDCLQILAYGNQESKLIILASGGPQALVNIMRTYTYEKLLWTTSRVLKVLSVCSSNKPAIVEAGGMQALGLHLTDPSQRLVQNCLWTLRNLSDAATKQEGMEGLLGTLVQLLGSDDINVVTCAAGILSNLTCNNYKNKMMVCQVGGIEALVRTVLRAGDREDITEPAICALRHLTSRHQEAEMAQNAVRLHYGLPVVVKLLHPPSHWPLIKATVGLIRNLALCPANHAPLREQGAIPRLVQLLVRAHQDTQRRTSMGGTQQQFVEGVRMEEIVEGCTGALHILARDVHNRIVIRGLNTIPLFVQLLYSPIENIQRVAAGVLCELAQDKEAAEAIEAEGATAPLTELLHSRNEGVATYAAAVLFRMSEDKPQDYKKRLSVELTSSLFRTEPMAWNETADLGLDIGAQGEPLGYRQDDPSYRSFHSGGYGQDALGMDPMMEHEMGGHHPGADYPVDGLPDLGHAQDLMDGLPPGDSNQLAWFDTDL

[1] = biological target: T2, full-length beta-Catenin (Uniprot ID P35222) (Homo sapiens (Human), UniProt P35222 2-781); test: fluorescence polarization competition; full-length beta-catenin with 5FAM-TCF4(10-53) probe as competitor
T2 construct: the AlphaScreen assay uses a Histidine (Nickel Chelate) detection kit, so a His tag is likely there; also called B-Catenin; bCat
T2 sequence: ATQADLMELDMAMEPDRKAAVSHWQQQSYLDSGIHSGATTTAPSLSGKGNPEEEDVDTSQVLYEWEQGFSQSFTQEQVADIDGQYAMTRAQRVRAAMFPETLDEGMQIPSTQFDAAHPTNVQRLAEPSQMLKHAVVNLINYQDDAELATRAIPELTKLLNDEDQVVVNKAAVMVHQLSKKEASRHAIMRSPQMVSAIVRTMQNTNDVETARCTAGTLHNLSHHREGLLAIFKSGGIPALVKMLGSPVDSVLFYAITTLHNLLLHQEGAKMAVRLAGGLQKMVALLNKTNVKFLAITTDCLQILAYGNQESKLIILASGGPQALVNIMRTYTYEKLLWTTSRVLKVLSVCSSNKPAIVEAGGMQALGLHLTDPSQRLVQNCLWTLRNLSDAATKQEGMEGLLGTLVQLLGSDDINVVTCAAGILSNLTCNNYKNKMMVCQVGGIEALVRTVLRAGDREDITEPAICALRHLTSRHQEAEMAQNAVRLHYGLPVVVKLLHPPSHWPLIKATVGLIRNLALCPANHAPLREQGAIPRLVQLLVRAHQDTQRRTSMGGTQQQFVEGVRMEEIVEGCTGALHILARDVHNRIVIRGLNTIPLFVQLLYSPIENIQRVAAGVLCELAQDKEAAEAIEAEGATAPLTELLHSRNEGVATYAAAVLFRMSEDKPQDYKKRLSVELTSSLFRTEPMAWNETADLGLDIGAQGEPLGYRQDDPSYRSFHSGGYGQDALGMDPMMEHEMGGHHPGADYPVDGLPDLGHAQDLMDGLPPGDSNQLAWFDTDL
Procedure: (§1) The plate was incubated protected from light for 60 minutes at 20° C. prior to read. Reads were performed on a CLARIOstar plate reader (BMG Labtech) in duplicate, and data were fitted to a 1:1 binding model with hill slope using an in-house script. All provided concentrations are final concentrations.

[2] = biological target: T2, full-length beta-Catenin (Uniprot ID …); test: AlphaScreen competition; full-length beta-catenin with biotin-TCF4(10-53) probe as competitor
Procedure: as §1, with “Equal volume of the titrated peptide was added to the” for “The”, “and” for “was”, “incubated for 15 minutes at 20° C. Then 4 uL of donor and 4 uL acceptor beads at 10 ug/mL were added to the plate, for a 16 uL reaction pool and” for “incubated”

NanoBRET Abs IC50 (B-cat-Halo): 16.4 µM
Binder: Ac-[αAllylPro]D[tBuAla][B5(3)]D[Phe(4-COOH)]AAFF[PyrS2][3Thi][Bta]Q-NH2 (staple 1-4, 4-11) [I-850]

NanoBRET Abs IC50 (B-cat-Halo): 23.8 µM
Binder: Ac-[αAllylPro]D[tBuAla][B5(3)]DNAAFN[PyrS2″][3Thi][Bta]H-NH2 (staple 1-4, 4-11) [I-837]

NanoBRET Abs IC50 (B-cat-Halo): 17.4 µM
Binder: Ac-[αAllylPro]D[tBuAla][B5(3)]DQAAFN[PyrS2″][3Thi][Bta]Q-NH2 (staple 1-4, 4-11) [I-838]

NanoBRET Abs IC50 (B-cat-Halo): 22.3 µM
Binder: Ac-[αAllylPro]D[tBuAla][B5(3)]D[Cit]AAFN[PyrS2″][3Thi][Bta]Q-NH2 (staple 1-4, 4-11) [I-840]

EC50 [1]: 2140 nM
EC50 [2]: 153 nM
Binder: Ac-ADI[RdN(3)]DEAAFQ[S7]FWA-NH2 (staple 4-11, stapled peptide composition) [I-153]

EC50 [1]: 5000 nM
EC50 [2]: 752 nM
Binder: Ac-ADI[RdN″]DEAAFA[S7]FWH-NH2 (staple 4-11, stapled peptide composition) [I-152]

EC50 [1]: 1760 nM
EC50 [2]: 116 nM
Binder: Ac-[αAllylPro]DI[B5(5)]DDAAFQ[S8]FWH-NH2 (staple 1-4, 4-11, stapled peptide) [I-175]

Continued, binder first:

Binder: Ac-[αAllylPro]DI[B5(5)]DDAAFQ[S8]FWH-NH2 (staple 1-4, 4-11, stapled peptide) [I-174]
EC50 [1]: 1760 nM
EC50 [2]: 116 nM

Binder: Ac-[Aib]DI[RdN]DEAAFQ[S7]FW-NH2 (staple 4-11, stapled peptide composition) [I-147]
EC50 [1]: 1640 nM
EC50 [2]: 328 nM

Binder: Ac-ADI[RdN″]DEAAFQ[S7]FW-NH2 (staple 4-11, stapled peptide composition) [I-148]
EC50 [1]: 2770 nM
EC50 [2]: 398 nM

Binder: Ac-[αAllylPro]DA[B5(19)]DEAAFV[S8]F[2Nal]Q-NH2 (staple 1-4, 4-11, stapled peptide composition) [I-140]
EC50 [1]: 2270 nM
EC50 [2]: 934 nM

Binder: Ac-[αAllylPro]DA[B5(16)]DEAAFV[S8]F[Trp(7-F)]Q-NH2 (staple 1-4, 4-11, stapled peptide composition) [I-166]
EC50 [1]: 2160 nM
EC50 [2]: 86.5 nM

B1: I-154 (peptide)
peptide: ADIXDEAAFAXFWA
modifications: not fully specified; as printed: Ac-Ala-Asp-Ile-RdN-Asp-Glu-Ala-Ala-Phe-Ala-S7-Phe-Trp-Ala-NH2; N-terminal acetyl, C-terminal amide; RdN(4), S7(11); staple RdN-S7 by olefin metathesis
notes: stapled peptide
EC50 [1]: 5000 nM
EC50 [2]: 828 nM

B2: I-172 (peptide)
peptide: XDAXDXAAFVXFWQ
modifications: not fully specified; as printed: Ac-PL3-Asp-Ala-B5-Asp-EtGA-Ala-Ala-Phe-Val-S8-Phe-Trp-Gln-NH2; N-terminal acetyl, C-terminal amide; PL3(1), B5(4), EtGA(6), S8(11); staples PL3-B5 and B5-S8 by olefin metathesis
notes: stapled peptide
EC50 [1]: 5000 nM
